Results as given in IntAct's records for PubMed 19363481.

B1: DNA repair protein rad60 (Schizosaccharomyces pombe (strain ATCC 38366 / 972)), Q9USX3 (parent)
chain: MDNLDEDDLAFFSKPIKKPPLNYAKQLIASSSDSEEESELDTNKQALEHINAQKNITHNENKSAEPLSRQSTILDADEGNQDVSDTTPNACLNEGRHSPKSAISCVTQPVSPVYNTRAAANLRNNSINSEAALSTTSSLLDDDFARRLEEIDRQVQEFEKSSSDMDVQIHTHKREIEEDDDNTSADVPLLKHSKSDHSTLYHSKSEFSTNEPVISVVLQLAVIGQRIPNSNISLPRDWEAPLFFKVKSNQQFRRVRIAYSERKKVDNVVLVFQNQRLWDYGTPKGAGMLKVDTRLVVHAYCHSDFISLKRIKELEVEKLSSVTEDSTAQTCKLITLLLRSSKSEDLRLSIPVDFTVKDLIKRYCTEVKISFHERIRLEFEGEWLDPNDQVQSTELEDEDQVSVVLD
partner: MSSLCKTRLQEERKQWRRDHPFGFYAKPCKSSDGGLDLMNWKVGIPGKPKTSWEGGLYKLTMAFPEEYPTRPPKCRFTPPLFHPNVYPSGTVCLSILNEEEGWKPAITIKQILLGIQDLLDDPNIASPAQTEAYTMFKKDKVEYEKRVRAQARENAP

Variants of: B1
Conditions: with ubc9_schpo hus5, P40984

effect of a mutation on the interaction | Variant
disrupting interaction | E380R
